Data on 7 molecules can be found in patent US20240294618A1 (CENTIVAX, published 2024).

“And” between values parts separate entries of the source, which are not always exact repeats. Equal values may be shown once. Read-outs that look alike come from different tables or passages of the source.

One may read the Kd as the concentration at which binding is half-saturated. A word on the koff: it is the rate constant with which the complex falls apart. Usually kon stands for the rate constant with which the complex forms.

Assay [1] deals with T1, long-neurotoxin-mamba (dendroapsis) (alpha-elapitoxin-dpp2d), recombinant, Mamba-Avi-His (black mamba (Dendroaspis polylepsis), UniProt C0HJD7 1-72).
T1 sequence: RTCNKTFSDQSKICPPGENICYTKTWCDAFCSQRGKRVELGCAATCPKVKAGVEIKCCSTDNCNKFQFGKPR

The target of assay [2] is T2, long-neurotoxin-taipan, recombinant, Taipan-Avi-His (coastal taipan (Oxyuranus scutatellus), UniProt A8HDK9 22-92).
T2 sequence: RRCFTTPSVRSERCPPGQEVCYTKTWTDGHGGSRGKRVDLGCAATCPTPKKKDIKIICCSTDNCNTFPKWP

The target in assay [3] is T3, long-neurotoxin-cobra (naja) (alpha-neurotoxin), recombinant, Cobra-Avi-His (cape cobra (Naja nivea), UniProt P01390 1-71).
T3 sequence: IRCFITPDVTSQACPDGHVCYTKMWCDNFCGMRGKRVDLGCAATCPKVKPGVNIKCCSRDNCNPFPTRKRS

Assay [4] addresses T2, long-neurotoxin-taipan, recombinant, …. This is another data set of the same source.
The target in assay [5] is T1, long-neurotoxin-mamba (dendroapsis) …. As to the kind of experiment: off-rate kinetics; platform not named.
Assay [6] deals with T2, long-neurotoxin-taipan, recombinant, …. As to the kind of experiment: off-rate kinetics; platform not named.
For assay [7], the target named is T4, long-neurotoxin-krait (bungarus) (alpha-bungarotoxin) (krait (Bungarus caeruleus), UniProt D2N116 3-76).
T4 construct: also called Krait LNX; long-neurotoxin from Krait
T4 sequence: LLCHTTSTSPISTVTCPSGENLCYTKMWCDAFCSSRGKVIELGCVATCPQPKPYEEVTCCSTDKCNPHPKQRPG
As to the kind of experiment: off-rate kinetics; platform not named.

B1: SNEURO_P01_B11 (antibody, V domains shown)
VH: QVQLQESGGGLVQPGGSLRLSCAASGFTFSNFDMHWVRQSPGKGLEWVSGLDHSGGAHYAGSVKGRFTISREDAKNSLDLQMNNLRVDDTAVYFCVRGTLYHYTSGSYYSDAFDIWGQGTLVTVSS
VL: DIVMTQSPSSLSASVGDRVTITCRASQGISDNLNWYQQKPGKAPKLLIYAASTLQSGVPSRLSGSGSGTDFTLTISSLQPEDFATYYCQQANSFPLTFGGGTKVEIKR
With B1, in assay [1], the Kd is 2.1 nM, the dissociation rate constant (koff) stood at 0.00038 s⁻¹ and the kon came out at 180000 M⁻¹ s⁻¹. Besides, in assay [2], the Kd stood at 35 nM, the off-rate (koff) is 0.0052 s⁻¹ and the on-rate constant (kon) came out at 150000 M⁻¹ s⁻¹. In assay [3], the Kd was found to be 0.41 nM, the koff worked out at 9e-05 s⁻¹ and the kon was 220000 M⁻¹ s⁻¹.

B2: SNEURO_P01_D09 (antibody, V domains shown)
VH: EVQLVESGGGFVQPGGSLRLSCAASGFTFSNFDMHWVRQSPGKGLEWVSGLDHSGGAHYAGSVKGRFTISREDAKNSLDLQMNNLRVDDTAVYFCVRGTLYHYTSGSYYSDAFDIWGQGTLVTVSS
VL: EIVLTQSPSSLSASVGDRVTITCQASQDISNYLNWYQQKPGKAPKLLIYAASSLESGVPSRFSGSGSGTDFTLTISSQQPEDFATYYCQQANSFPYTFGQGTKVEIKR
Turning to B2, the Kd in assay [4] was 0.49 nM and 0.96 nM; in assay [2], 1.5 nM.

B3: SNEURO_P01_D09 FW germlined (antibody, V domains shown)
VH: EVQLVESGGGLVQPGGSLRLSCAASGFTFSNFDMHWVRQATGKGLEWVSGLDHSGGAHYAGSVKGRFTISRENAKNSLYLQMNSLRAGDTAVYYCVRGTLYHYTSGSYYSDAFDIWGQGTLVTVSS
VL: DIQMTQSPSSLSASVGDRVTITCQASQDISNYLNWYQQKPGKAPKLLIYAASSLESGVPSRFSGSGSGTDFTLTISSLQPEDFATYYCQQANSFPYTFGQGTKVEIK
B3: the koff in assay [5] is 0.000304 s⁻¹; in assay [6] it was 0.000366 s⁻¹.

B4: SNEURO_P01_D09 VK L3 NS->QS (antibody, V domains shown)
VH: EVQLVESGGGFVQPGGSLRLSCAASGFTFSNFDMHWVRQSPGKGLEWVSGLDHSGGAHYAGSVKGRFTISREDAKNSLDLQMNNLRVDDTAVYFCVRGTLYHYTSGSYYSDAFDIWGQGTLVTVSS
VL: EIVLTQSPSSLSASVGDRVTITCQASQDISNYLNWYQQKPGKAPKLLIYAASSLESGVPSRFSGSGSGTDFTLTISSQQPEDFATYYCQQAQSFPYTFGQGTKVEIKR
Take B4: the dissociation rate constant (koff) in assay [6] is 0.000304 s⁻¹.

B5: SNEURO_P01_D09 VH germlined (antibody, V domains shown)
VH: EVQLVESGGGLVQPGGSLRLSCAASGFTFSNFDMHWVRQATGKGLEWVSGLDHSGGAHYAGSVKGRFTISRENAKNSLYLQMNSLRAGDTAVYYCVRGTLYHYTSGSYYSDAFDIWGQGTLVTVSS
VL: EIVLTQSPSSLSASVGDRVTITCQASQDISNYLNWYQQKPGKAPKLLIYAASSLESGVPSRFSGSGSGTDFTLTISSQQPEDFATYYCQQANSFPYTFGQGTKVEIK
For the molecule B5, the koff in assay [5] turned out to be 8.54e-05 s⁻¹; in assay [6], 0.000488 s⁻¹.

B6: SNEURO_P01_D09 VK L3 NS->NT (antibody, V domains shown)
VH: EVQLVESGGGFVQPGGSLRLSCAASGFTFSNFDMHWVRQSPGKGLEWVSGLDHSGGAHYAGSVKGRFTISREDAKNSLDLQMNNLRVDDTAVYFCVRGTLYHYTSGSYYSDAFDIWGQGTLVTVSS
VL: EIVLTQSPSSLSASVGDRVTITCQASQDISNYLNWYQQKPGKAPKLLIYAASSLESGVPSRFSGSGSGTDFTLTISSQQPEDFATYYCQQANTFPYTFGQGTKVEIKR
With B6, the koff in assay [6] worked out at 0.000769 s⁻¹.

B7: SNEURO_P01_D09 VK germlined (antibody, V domains shown)
VH: EVQLVESGGGFVQPGGSLRLSCAASGFTFSNFDMHWVRQSPGKGLEWVSGLDHSGGAHYAGSVKGRFTISREDAKNSLDLQMNNLRVDDTAVYFCVRGTLYHYTSGSYYSDAFDIWGQGTLVTVSS
VL: DIQMTQSPSSLSASVGDRVTITCQASQDISNYLNWYQQKPGKAPKLLIYAASSLESGVPSRFSGSGSGTDFTLTISSLQPEDFATYYCQQANSFPYTFGQGTKVEIK
As for B7, the figures for the koff in assay [5], in assay [6] and in assay [7] were 6.95e-05 s⁻¹, 0.000392 s⁻¹ and 5.59e-05 s⁻¹, respectively.
